Several values for one entry are separate records, joined by “and”; a condition that tells them apart may be missing. Identical values can stand only once.

Holding throughout (conditions): both partners purified
Test [1] deals with T1, CUL3NTD (CUL3 N-terminal domain, residues 1–388, I342R L346D) (human, UniProt Q13618 1-388, I342R | L346D).
T1 construct: human CUL3, Uniprot Q13618, residues 1–388, vector pNIC-CTHF, with stabilising mutations I342R and L346D (split-n-express); source: E. coli BL21(DE3)-pRARE2, purified (nickel sepharose, TEV cleavage, SEC); not shown: His6, C-terminal, cleaved; FLAG, C-terminal, cleaved
In words: crystal structure; KEAP1_(BTB-3-box) and CUL3NTD mixed 1:1, purified by SEC; sitting drop at 20 °C, 20% PEG 3350, 10% ethylene glycol, 0.2 M potassium citrate tribasic; 3.45 Å, space group C2 2 2_(1).

In test [2] the target is biotinylated CUL3NTD (residues 1–389) (human, UniProt Q13618 1-389, I342R | L346D, biotin (on the avi tag)). In words: BLI; biotinylated CUL3NTD immobilised on streptavidin tips, KEAP1_(BTB-3-box) in serial dilution; 50 mM HEPES, 300 mM NaCl, 0.5 mM TCEP, 10 mM DTT, 0.01% TWEEN-20; steady-state and kinetic fits, 1:1 model; apparent.
Test [3] deals with T2, AF488-labeled CUL3NTD (human, UniProt Q13618 1-388, I342R | L346D, AF488 by direct acylation with AF488-Tfp (sites not given)).
T2 construct: human CUL3, Uniprot Q13618, residues 1–388, vector pNIC-CTHF, with stabilising mutations I342R and L346D; also called AF488-CUL3NTD; source: E. coli BL21(DE3)-pRARE2, purified (nickel sepharose, TEV cleavage, SEC), labeled with AF488-Tfp; not shown: His6, C-terminal, cleaved; FLAG, C-terminal, cleaved
In words: FRET or BRET; TR-FRET protein displacement assay: CoraFluor-1-labeled KEAP1FL + AF488-labeled CUL3NTD, unlabeled protein titrated (cmax 25 μM); assay buffer pH 7.5, 2 h, room temperature; KD from IC50 by Cheng-Prusoff.

The target in test [4] is T2, AF488-labeled CUL3NTD. In words: FRET or BRET; TR-FRET protein displacement assay: CoraFluor-1-labeled KLHL11_(BTB-BACK) + AF488-labeled CUL3NTD, unlabeled protein titrated (cmax 25 μM); assay buffer pH 7.5, 2 h, room temperature; KD from IC50 by Cheng-Prusoff.

T2 sequence (Q13618 1-388 I342R/L346D): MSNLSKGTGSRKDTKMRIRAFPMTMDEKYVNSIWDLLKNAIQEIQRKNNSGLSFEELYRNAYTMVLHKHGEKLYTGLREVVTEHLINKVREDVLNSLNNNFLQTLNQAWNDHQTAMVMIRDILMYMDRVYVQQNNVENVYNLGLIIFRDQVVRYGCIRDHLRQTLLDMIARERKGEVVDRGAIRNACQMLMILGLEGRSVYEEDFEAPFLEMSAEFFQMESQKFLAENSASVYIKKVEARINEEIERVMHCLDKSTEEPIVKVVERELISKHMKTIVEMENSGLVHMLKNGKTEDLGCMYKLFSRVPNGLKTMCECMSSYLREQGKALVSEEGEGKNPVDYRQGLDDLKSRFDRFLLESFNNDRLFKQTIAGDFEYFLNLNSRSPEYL
biotinylated CUL3NTD (residues 1–389), sequence (Q13618 1-389 I342R/L346D): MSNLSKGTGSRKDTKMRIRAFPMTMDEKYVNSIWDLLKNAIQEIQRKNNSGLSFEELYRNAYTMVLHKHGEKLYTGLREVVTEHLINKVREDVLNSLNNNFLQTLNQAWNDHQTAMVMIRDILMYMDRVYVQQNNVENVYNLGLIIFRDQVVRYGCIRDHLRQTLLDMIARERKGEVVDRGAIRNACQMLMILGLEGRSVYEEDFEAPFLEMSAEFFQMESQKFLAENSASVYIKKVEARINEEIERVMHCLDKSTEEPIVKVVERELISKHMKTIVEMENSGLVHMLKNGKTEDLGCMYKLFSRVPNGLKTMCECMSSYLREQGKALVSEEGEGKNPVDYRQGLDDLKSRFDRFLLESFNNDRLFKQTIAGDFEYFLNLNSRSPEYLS
T1 sequence (Q13618 1-388 I342R/L346D): as the sequence (Q13618 1-388 I342R/L346D) above

B1: KEAP1_(BTB-3-box) (human KEAP1 residues 48–213) (domain or fragment, UniProt Q14145 48-213, looked up)
chain: GNRTFSYTLEDHTKQAFGIMNELRLSQQLCDVTLQVKYQDAPAAQFMAHKVVLASSSPVFKAMFTNGLREQGMEVVSIEGIHPKVMERLIEFAYTASISMGEKCVLHVMNGAVMYQIDSVVRACSDFLVQQLDPSNAIGIANFAEQIGCVELHQRAREYIYMHFGE
notes: human KEAP1 (KLHL19), Uniprot Q14145, residues 48–213 (BTB and 3-box), vector pNIC28-Bsa4; Homodimer through the BTB domain by crystallographic symmetry; Residues 51–204 modelled in the structure; also called BTB and 3-box domains of human KEAP1; source: E. coli BL21(DE3)-pRARE2, purified (nickel sepharose, TEV cleavage, SEC); not shown: His6, N-terminal, cleaved
On to B1, for which the “stoichiometry N” value in test [1] was 1 KEAP1 per CUL3 (printed as 2:2). The Kd in test [2] was 1700 nM and 1400 nM; with AF488-labeled CUL3NTD [3], 1040 nM; with AF488-labeled CUL3NTD [4] it was 720 nM.

The values are drawn from PMC10564622 (Free Radical Biology & Medicine, 2023).
